According to patent publication US20230183336A1 (MODMAB THERAPEUTICS, published 2023):

Target: T1, recombinant mouse LRP5-His chimera (mouse, UniProt Q91VN0 31-1383)
T1 construct: extracellular domain; also called ECD of mouse LRP5; not shown: His tag
T1 sequence (looked up): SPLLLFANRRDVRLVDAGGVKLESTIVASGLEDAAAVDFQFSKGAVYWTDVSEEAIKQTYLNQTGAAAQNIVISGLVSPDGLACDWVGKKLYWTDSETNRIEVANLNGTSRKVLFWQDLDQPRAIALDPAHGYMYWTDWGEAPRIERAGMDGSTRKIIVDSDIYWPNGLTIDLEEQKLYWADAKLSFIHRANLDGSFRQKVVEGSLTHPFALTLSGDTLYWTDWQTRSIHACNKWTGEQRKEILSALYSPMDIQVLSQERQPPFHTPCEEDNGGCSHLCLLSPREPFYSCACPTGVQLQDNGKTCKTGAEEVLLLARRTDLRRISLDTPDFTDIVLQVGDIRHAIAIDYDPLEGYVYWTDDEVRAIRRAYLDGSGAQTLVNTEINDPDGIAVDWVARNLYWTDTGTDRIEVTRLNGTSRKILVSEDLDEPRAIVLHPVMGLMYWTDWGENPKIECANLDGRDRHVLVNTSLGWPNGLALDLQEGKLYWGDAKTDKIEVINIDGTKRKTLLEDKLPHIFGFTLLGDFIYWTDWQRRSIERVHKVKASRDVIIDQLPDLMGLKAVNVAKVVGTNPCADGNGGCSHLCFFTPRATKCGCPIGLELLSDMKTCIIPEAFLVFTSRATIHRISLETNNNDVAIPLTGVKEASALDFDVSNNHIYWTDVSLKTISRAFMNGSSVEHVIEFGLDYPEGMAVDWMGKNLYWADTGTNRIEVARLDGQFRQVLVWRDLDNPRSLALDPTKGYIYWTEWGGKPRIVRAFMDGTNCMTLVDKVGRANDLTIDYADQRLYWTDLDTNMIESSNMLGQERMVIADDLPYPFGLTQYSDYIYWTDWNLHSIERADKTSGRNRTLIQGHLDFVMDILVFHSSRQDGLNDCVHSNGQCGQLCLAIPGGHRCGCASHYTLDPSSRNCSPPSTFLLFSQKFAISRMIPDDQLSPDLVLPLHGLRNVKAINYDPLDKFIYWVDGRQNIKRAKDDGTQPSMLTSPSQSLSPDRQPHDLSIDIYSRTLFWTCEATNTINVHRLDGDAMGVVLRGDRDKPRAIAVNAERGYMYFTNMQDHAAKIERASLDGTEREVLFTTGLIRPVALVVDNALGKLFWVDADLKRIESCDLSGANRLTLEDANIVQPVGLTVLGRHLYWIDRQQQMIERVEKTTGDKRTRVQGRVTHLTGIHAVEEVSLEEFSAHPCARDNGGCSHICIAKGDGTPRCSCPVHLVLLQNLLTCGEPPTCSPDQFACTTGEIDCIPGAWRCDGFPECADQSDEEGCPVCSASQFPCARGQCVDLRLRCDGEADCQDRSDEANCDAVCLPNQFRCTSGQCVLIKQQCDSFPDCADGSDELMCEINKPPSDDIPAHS
Test: single-point ELISA, coated antigen, purified Fab or IgG1, anti-kappa-HRP
Description: FIGS. 1A and 1B show sixteen (16) anti-LRP antibodies. (A) The amino acid sequences of the complementarity determining regions (CDR) of the heavy (H) and the light (L) chains are presented. The antibodies were grouped into unique epitopes as determined by competitive ELISAs. (B) Single-point ELISAs were performed on 96-well Maxisorb immune plates coated with ECD's of mouse LRP5, mouse LRP6 and human LRP6 chimeras. The plates were incubated with the purified Fab or IgG1 at the concentrations indicated followed by incubation with horseradish peroxidase (HRP)-conjugated anti-kappa antibody. The wells were washed eight times followed by incubation with 3,3′,5,5′-tetramethylbenzidine/H₂O₂ peroxidase (TMB) substrate for 5-10 min. The reaction was stopped by adding 1M H₃PO₄ and the absorbance was measured spectrometrically at 450 nm in a microtiter plate reader. FIG. 1A discloses “SSVA” as SEQ ID NO: 34, and “SASSLYS” as SEQ ID NO: 35, as well as SEQ ID NOS 36-49, 51, 44, 2-4, 4, 5-7, 5, 4, 5, 8-10, 4, 52, 55, 11-16, 15, 15, 13, 17-20, 13, 53, 56, 21-23, 22, 24-33, 54, 57, respectively, in order of columns.
The full length IgG1s and the antibody fragments (Fabs) were purified and a single-point ELISA was done to determine the specificity of the antibodies. […] A multipoint competitive ELISA was used to determine the relative affinities of the antibodies to the recombinant antigen.

B1: LRP5-H5 (antibody, V domains shown)
VH: EVQLVESGGGLVQPGGSLRLSCAASGFNLSYSSIHWVRQAPGKGLEWVASISSSYGSTSYADSVKGRFTISADTSKNTAYLQMNSLRAEDTAVYYCARGYWAIDYWGQGTLVTVSS
VL: DIQMTQSPSSLSASVGDRVTITCRASQSVSSAVAWYQQKPGKAPKLLIYSASSLYSGVPSRFSGSRSGTDFTLTISSLQPEDFATYYCQQPVGHYGYPITFGQGTKVEIKR
notes: Fab-phage in the screen
  binding result: binds
